Results taken from patent US20180155451A1 (published 2018).

What was measured:
FcγRIIb = biological target: T1, FcγRIIb (human, UniProt P31994 43-217); test: SPR (Biacore), relative to GpH7-A5/GpH7-B3/GpL16-k0 = 100
T1 construct: extracellular domain; also called FcgRIIb; 2b
T1 sequence (looked up): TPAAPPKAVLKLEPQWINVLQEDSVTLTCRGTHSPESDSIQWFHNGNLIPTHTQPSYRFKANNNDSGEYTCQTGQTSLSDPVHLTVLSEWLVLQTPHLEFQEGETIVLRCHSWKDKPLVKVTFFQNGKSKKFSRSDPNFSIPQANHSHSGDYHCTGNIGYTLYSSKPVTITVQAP
Description: (§1) The heterodimerized antibodies He Abs in which one of the H chains was introduced with an alteration were assayed for their binding activities to each activating FcγR and inhibitory FcγR according to the method described in Example 4. […] The activating FcγRs in FIGS. 26, 27, 28, and 29 are FcγRIa, FcγRIIa (R), FcγRIIa (H), and FcγRIIIa, respectively.
(§2) Analysis of interaction between objective antibody and the FcγR was carried out using Biacore T100 (GE Healthcare). HBS-EP+ (GE Healthcare) was used as the running buffer, and the measurement temperature was set to 25° C. Chips produced by immobilizing the antigen peptide by the amine coupling method to a Series S Sencor Chip CM5 (GE Healthcare), or alternatively, chips produced by allowing preliminarily biotinylated antigen peptides to interact with and immobilize onto a Series S Sensor Chip SA (certified) (GE Healthcare) were used. Antibodies of interest were captured onto an antigen peptide-immobilized chip, and allowed to interact to each FcγR diluted with running buffer. To regenerate and repeatedly use the chip, the antibodies captured on the chip were washed off by reacting 10 mM glycine-HCl, pH 1.5.

FcγRIa [1] = biological target: T2, FcγRIa (human, UniProt P12314 16-292); test: as above
T2 construct: extracellular domain; also called FcgRI; FcgRIa
Description: as §1, §2

FcγRIa [2] = biological target: T2, FcγRIa; test: SPR (Biacore); He/Con_1a (FcgRIa) divided by He/Con_2b (FcgRIIb)
Description: as §1, §2

T2 sequence (P12314 16-292): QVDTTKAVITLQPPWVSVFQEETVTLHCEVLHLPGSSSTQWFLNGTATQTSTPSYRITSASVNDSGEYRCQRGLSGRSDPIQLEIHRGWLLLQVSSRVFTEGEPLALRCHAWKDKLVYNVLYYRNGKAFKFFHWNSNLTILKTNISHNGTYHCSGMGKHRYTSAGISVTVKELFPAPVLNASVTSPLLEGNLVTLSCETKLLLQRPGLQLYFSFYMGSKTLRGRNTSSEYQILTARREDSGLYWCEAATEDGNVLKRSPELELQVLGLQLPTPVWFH

B1: GpH7-A5/GpH7-B3 variant N325_05P/GpL16-k0 (antibody, human IgG1, kappa)
heavy 1: not shown
heavy 2: not shown
light: DIVMTQSPLSLPVTPGEPASISCQASESLVHSNRNTYLHWYLQKPGQSPQLLIYKVSNRFSGVPDRFSGSGSGTDFTLKISRVEAEDVGVYYCSQNTHVPPTFGQGTKVEIERTVAAPSVFIFPPSDEQLKSGTASVVCLLNNFYPREAKVQWKVDNALQSGNSQESVTEQDSKDSTYSLSSTLTLSKADYEKHKVYACEVTHQGLSSPVTKSFNRGEC
notes: heterodimerized IgG1, one H chain mutated; also called He Ab
With B1 the “He/Con_2b (IIb binding)” value (FcγRIIb) was 26 relative (control = 100), the “He/Con_1a (Ia binding)” value (FcγRIa [1]) was 88.8 relative (control = 100) and the “Ia/IIb He_1a/2b” value (FcγRIa [2]) was 3.42.

B2: GpH7-A5/GpH7-B3 variant S298_15Y/GpL16-k0 (antibody, human IgG1, kappa)
heavy 1: not shown
heavy 2: not shown
light: DIVMTQSPLSLPVTPGEPASISCQASESLVHSNRNTYLHWYLQKPGQSPQLLIYKVSNRFSGVPDRFSGSGSGTDFTLKISRVEAEDVGVYYCSQNTHVPPTFGQGTKVEIERTVAAPSVFIFPPSDEQLKSGTASVVCLLNNFYPREAKVQWKVDNALQSGNSQESVTEQDSKDSTYSLSSTLTLSKADYEKHKVYACEVTHQGLSSPVTKSFNRGEC
notes: as for B1
For B2, the “He/Con_2b (IIb binding)” value (FcγRIIb) was 61.4 relative (control = 100), the “He/Con_1a (Ia binding)” value (FcγRIa [1]) was 107 relative (control = 100) and the “Ia/IIb He_1a/2b” value (FcγRIa [2]) was 1.75.

B3: GpH7-A5/GpH7-B3 variant S298_11K/GpL16-k0 (antibody, human IgG1, kappa)
heavy 1: not shown
heavy 2: not shown
light: DIVMTQSPLSLPVTPGEPASISCQASESLVHSNRNTYLHWYLQKPGQSPQLLIYKVSNRFSGVPDRFSGSGSGTDFTLKISRVEAEDVGVYYCSQNTHVPPTFGQGTKVEIERTVAAPSVFIFPPSDEQLKSGTASVVCLLNNFYPREAKVQWKVDNALQSGNSQESVTEQDSKDSTYSLSSTLTLSKADYEKHKVYACEVTHQGLSSPVTKSFNRGEC
notes: as for B1
In the case of B3, the “He/Con_2b (IIb binding)” value (FcγRIIb) is reported as 61.3 relative (control = 100), the “He/Con_1a (Ia binding)” value (FcγRIa [1]) is reported as 109 relative (control = 100) and the “Ia/IIb He_1a/2b” value (FcγRIa [2]) is reported as 1.78.

B4: GpH7-A5/GpH7-B3 variant S298_18N/GpL16-k0 (antibody, human IgG1, kappa)
heavy 1: not shown
heavy 2: not shown
light: DIVMTQSPLSLPVTPGEPASISCQASESLVHSNRNTYLHWYLQKPGQSPQLLIYKVSNRFSGVPDRFSGSGSGTDFTLKISRVEAEDVGVYYCSQNTHVPPTFGQGTKVEIERTVAAPSVFIFPPSDEQLKSGTASVVCLLNNFYPREAKVQWKVDNALQSGNSQESVTEQDSKDSTYSLSSTLTLSKADYEKHKVYACEVTHQGLSSPVTKSFNRGEC
notes: as for B1
With B4 the “He/Con_2b (IIb binding)” value (FcγRIIb) was 48.1 relative (control = 100), the “He/Con_1a (Ia binding)” value (FcγRIa [1]) was 108 relative (control = 100) and the “Ia/IIb He_1a/2b” value (FcγRIa [2]) was 2.25.

B5: GpH7-A5/GpH7-B3 variant S298_12R/GpL16-k0 (antibody, human IgG1, kappa)
heavy 1: not shown
heavy 2: not shown
light: DIVMTQSPLSLPVTPGEPASISCQASESLVHSNRNTYLHWYLQKPGQSPQLLIYKVSNRFSGVPDRFSGSGSGTDFTLKISRVEAEDVGVYYCSQNTHVPPTFGQGTKVEIERTVAAPSVFIFPPSDEQLKSGTASVVCLLNNFYPREAKVQWKVDNALQSGNSQESVTEQDSKDSTYSLSSTLTLSKADYEKHKVYACEVTHQGLSSPVTKSFNRGEC
notes: as for B1
In the case of B5, the “He/Con_2b (IIb binding)” value (FcγRIIb) is reported as 57.8 relative (control = 100), the “He/Con_1a (Ia binding)” value (FcγRIa [1]) is reported as 109 relative (control = 100) and the “Ia/IIb He_1a/2b” value (FcγRIa [2]) is reported as 1.89.

B6: GpH7-A5/GpH7-B3 variant N325_12R/GpL16-k0 (antibody, human IgG1, kappa)
heavy 1: not shown
heavy 2: not shown
light: DIVMTQSPLSLPVTPGEPASISCQASESLVHSNRNTYLHWYLQKPGQSPQLLIYKVSNRFSGVPDRFSGSGSGTDFTLKISRVEAEDVGVYYCSQNTHVPPTFGQGTKVEIERTVAAPSVFIFPPSDEQLKSGTASVVCLLNNFYPREAKVQWKVDNALQSGNSQESVTEQDSKDSTYSLSSTLTLSKADYEKHKVYACEVTHQGLSSPVTKSFNRGEC
notes: as for B1
For B6, the “He/Con_2b (IIb binding)” value (FcγRIIb) was 19.1 relative (control = 100), the “He/Con_1a (Ia binding)” value (FcγRIa [1]) was 84.2 relative (control = 100) and the “Ia/IIb He_1a/2b” value (FcγRIa [2]) was 4.41.

B7: GpH7-A5/GpH7-B3 variant S298_14T/GpL16-k0 (antibody, human IgG1, kappa)
heavy 1: not shown
heavy 2: not shown
light: DIVMTQSPLSLPVTPGEPASISCQASESLVHSNRNTYLHWYLQKPGQSPQLLIYKVSNRFSGVPDRFSGSGSGTDFTLKISRVEAEDVGVYYCSQNTHVPPTFGQGTKVEIERTVAAPSVFIFPPSDEQLKSGTASVVCLLNNFYPREAKVQWKVDNALQSGNSQESVTEQDSKDSTYSLSSTLTLSKADYEKHKVYACEVTHQGLSSPVTKSFNRGEC
notes: as for B1
In the case of B7, the “He/Con_2b (IIb binding)” value (FcγRIIb) is reported as 77.9 relative (control = 100), the “He/Con_1a (Ia binding)” value (FcγRIa [1]) is reported as 107 relative (control = 100) and the “Ia/IIb He_1a/2b” value (FcγRIa [2]) is reported as 1.37.

B8: GpH7-A5/GpH7-B3 variant N325_16H/GpL16-k0 (antibody, human IgG1, kappa)
heavy 1: not shown
heavy 2: not shown
light: DIVMTQSPLSLPVTPGEPASISCQASESLVHSNRNTYLHWYLQKPGQSPQLLIYKVSNRFSGVPDRFSGSGSGTDFTLKISRVEAEDVGVYYCSQNTHVPPTFGQGTKVEIERTVAAPSVFIFPPSDEQLKSGTASVVCLLNNFYPREAKVQWKVDNALQSGNSQESVTEQDSKDSTYSLSSTLTLSKADYEKHKVYACEVTHQGLSSPVTKSFNRGEC
notes: as for B1
B8 was tested, and the “He/Con_2b (IIb binding)” value (FcγRIIb) was 70.1 relative (control = 100), the “He/Con_1a (Ia binding)” value (FcγRIa [1]) was 95.1 relative (control = 100) and the “Ia/IIb He_1a/2b” value (FcγRIa [2]) was 1.36.
